# From the domain aggregation screens of Martell et al. (2025)
# Test: soluble fraction after stress (log2 fold change); higher = more stays soluble; pooled small domains, quantitative proteomics
# Conditions: stress: 50 degC
# How it was run: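 Pooled custom libraries of small protein domains were each held under stress at 50°C. The read-out, high-throughput quantitative proteomics, tracked how much of each protein stayed soluble. This is reported as a base-two log fold change used to indicate aggregation propensity. Higher values mean more protein remains in solution.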
row,Sequence,soluble fraction (log2)
1,HMGQVPPLTRRETEIARLVSRGLSNKEIASTLVISPRTAEGHVEHILDKLGFSSRTQIATWLNEQTRNGK,-0.0938
2,HMGRDWKTDLLNLATARGWGDVSYEVTGEGPDHARVYTAVAIVANQKTGTGVGPSKKEAERLAAEQAYRML,-0.142
3,HMGRELSDLELSLLRILDDKIPLLIDEAADRLQLPVAQVLSAVTIMEIDGLIRREGMRKYLRTVEVEETK,-0.499
4,HMGRFAETVEHIVAAQLARRQGIPTMEQFASFFNVSRATFQRRLGEEGETLEQIKQRVRLRLALELLHP,-2.86
5,HMGRGAAKGPLKELGLDPVTGRPLVVKDGKFGMYVTDGETNAGLRRGDLVEQLTLDRGMELLAERRARADQ,0.203
6,HMGRKIDDPSSMTGAEKAAVILLALGDEQRQLWEMMDDEEIRVVSQAMVNLGNVTSGAVEKLIMEFVGSMS,-0.243
7,HMGRKPATTIPLQVRNAVLDLYRTKYYGANFQHYTELLHEHEGIRISTSSVAKILEAEYILSPK,-1.69
8,HMGRKPVSPEIVERVLQLAKSNPDWGYEHIAGTMRYLGYNVSATTIRHILEANGIVPDPERRL,-0.128
9,HMGRMSLDEAKAVILPIGEHKGHTMGEVLAIKPGLIDFYASQKFNSGKYPYLKEAAQVILENQG,-0.109
10,HMGRRERKKLQSRRAIIEAAVTEFKEKGFREASVADIMTRADLGLGTFYNYFQSKEDILMSLLS,-0.0676
11,HMGRRRAAPQEPLRQFPASPVTGQPIKLLLGQYGPYVTDGTTNASLPKGSSPDELTFEQATQLLAERALRG,0.109
12,HMGRSARVQQAVHQAVRALLEENDGERSALSVPLVAERAGVNSSTIYRRWGDLPRLLAAVASN,-0.481
13,HMGRTVKGVNFVGLRDAGDPVDLAEIYSKEGADELVFLDITATHEKRKTLLDLVTRVAERINIPFTVGGGI,-0.015
14,HMGSALLEAGADDAGQRLDQWLAAKLGPSISRSRVQALIKQGAVLVGGKPAGEAKRKLVAGDVVSVALPEP,0.0853
15,HMGSDLVAWAQTRIGRHPEEAADVIAALIDRHGEARVRAASRSLLARKFAHASDLRTAIDAAIG,-0.0161
16,HMGSEEMLGALGVVERATDDGDWWIAVHGEHWRARSAQALVPGDRVRVARIDGLTLTVTPIA,-0.0957
17,HMGSEGVKVEDTIGMSEAEATATLGKSGFVVNKTESHDPYIKAGNVITQSPAAGSKAPKGTTVTLTISLGP,0.131
18,HMGSEISYSEFLNRVEQGQVAAVRLDGEQIFITGPTGEAYQTIQPRNTDVLPDLREAGVEIQAAPQ,-0.0723
19,HMGSEYPSNPLASRWAKGVRLYHDEWGYGVIQAARGSEPDDYVITVRFESGAEKSFLPKFQAHSLMIVKD,-0.161
20,HMGSGQVTLPDLEGKSMKEVARILSQLGLHLSPDGHGLAFKQSPAAGTRVPVGSTIKVSFQPL,0.0366
21,HMGSKKAIPYVSGMSETEAQNELEEAGFKVTSSFQYDDSVESGKVISTTPEAGTKAEKGSTVTMLVSQGSN,-0.114
22,HMGSLVQTAMQAVTKHIHDNAMRVGDTLPGEGHFAETLGVSRAVMREAFGALAALKLIDVGNGRKPRVGR,-0.819
23,HMGSNATIKYAIKGDESLVQVAQKFNVTVSELRSWNNISAFENAKTGQELVINVPASKYETYFALANT,0.22
24,HMGSNLSFDLSQIIASRYQEKAAELGLTAPSLARTDLSPQEQATAEVVARAIIADYYDQRVAPFNDLIPQ,-0.394
25,HMGSNRPLALGDVVRIEGSKTLGTILELNAKDAVVALGALKTTLPLSRIHHASSQESQRLKRQATQAPLR,0.123

row,Sequence,soluble fraction (log2)
1,HMGSPKLVIKNGQVDYQVLKKEKLDLLELTSLLRGQNTFSIREIEYAIIEPNGVITVIKKPEYQSVVKGDL,-0.239
2,HMGSPVTAVMNRVLNETERQIVTLHVISGFKHREIAELLEKPVGTVLWTYNNALGKMRKAMQRE,-1.33
3,HMGSRRFGDSNHAAKLTEEQVVEIRELAAAGATTKFLAEMVGMHPNYVGLILRGLSWPEAGGPLRVA,0.11
4,HMGSVDMVYGDHKINSEHMDLSFKNQTAVLYDKVNYKSSLSMLSADKILVNFLNKYTKIEMNDENNNILIQ,0.059
5,HMGSVNDNVQKLTSQIGETTETGDTITPEDVELYKKMVDPLSTMAQKLEAAEILKLKGIIGSNGIIV,-0.0442
6,HMGSWEDALKNWVDSALASGQKGILEQAVPKFERIMIETALTHTAGRRRDASLLLGWGRNTLTRKIKELGI,-0.214
7,HMGTAESIRLFLSSGLIKGVGEALAGRIVDTFGTDTFDIIENHPELLAGVKGISHRLAMSIYESFSQHIGV,-1.03
8,HMGTDIGADKAAQTALADAGLSSSQVTGLRTKQDWDDGQLRYEVEFRAGGVEYDYELAADGTILKADRDT,0.247
9,HMGTEITEQRAKEIALENAKVAESDVTAMRVKKEMDDGVWRYDVEFYVQNKEYDYEINAMDGTILSVDYD,-0.04
10,HMGTESFGARIRKIREARDWTPAALAEATGQTPEFVARVERDEVAPPVAFLLRLAAALGVDPSTF,-0.123
11,HMGTGADKNSWTIGDKVKHRKWGTGTVVKVTGAGEDAELDIAFKSEGIKRLLAAFAPIEKVK,-0.034
12,HMGTHDAGTRFFDNLDSLLQNRDATRADVLAVYLLAVSLGFRGKHRSVSSAPQIAHYRNQAYVTLFQ,0.546
13,HMGTIEQAFKGKAPGSAHLYDRARAVLAGGVTHDTRIHAPFPIMVQRALGARKWDVDGNEYIDY,0.0863
14,HMGTMKGFVDGSSVHLRSGPSLSESIRAKVVKGQTLYITERRGDWYRATVHGGGEGWIHTSLVKLAG,0.178
15,HMGTPLYLLLAAEVRDRIATEQLAPHTAVPSERELAELHGVSRMTARQALALLESEGLVYRNPPRGTFVAE,-0.85
16,HMGTQIKSPMPGTILDVRVNVGDTVKEGDILMILEAMKMENEILAPVSGKVAAIQVSKGTAVNSGDLLAVL,0.224
17,HMGTRHPLPYAYARANTVLLEDDGDRLVLWAPENVSLTALGEVLRRFDVDALERESSSTLANRIAVAYAG,-0.751
18,HMGTTLTKIPGIGENRARLLLRHFGSLRAVREADADALAAVKGMTRPAAEAIVRYFEQQDAEGRRD,0.21
19,HMGTTTPPATRKGKVTSSFLNVRSGPSTANAKVAELKQNAVVTIYETSSNGWHRIGVNQWVIGTNIQE,-0.441
20,HMGTVSSGSSSTDTPFSLGEIVRHKVFGEGVVLSIEGQGDASRIQINFNTAGTKWLVTAYADLEK,-0.219
21,HMGTVVKRNALVHAWTEFNGGRASTKLLALGPGKVGEWIELENPQSGRKLRGEVQVDGSVRLG,0.11
22,HMGTWKKIGTMTATVNDLYVRETPNGYIMGFINKGTVVEVDGKTTGKWTHAKVEGIGVGWIWTGYLDK,-3.47
23,HMGTYYTEIIAQLKKEIANGTWKLGERLPGELALAKQFNVSRSSIREALKALAYAGIVESKPGRGTFLLHV,-0.875
24,HMGVAAEDPDEAEKGAHSLKSSAANVGAEVVRGLAGEIESAASSGDVEAVRTILPGLEDAYSQAITDLET,0.0162
25,HMGVDMGPAKYVGQKALTATEMRPAGKIQIGQTVFDAVSVGPFIGARKAVKVIKYENAQLYVEPE,0.00597

row,Sequence,soluble fraction (log2)
1,HMGVEVEVPNVKGKLVADAEYELGLAQLTPVRTDSAYNRNLPPGTVLEQLPASGSHVKEGREIYLTINST,0.264
2,HMGVGERIKARRKEIGLSAEQVAKELGVSPATVYRYESNDIMNMRIDKLEPIAKALHTTPAYLMGWE,-0.0318
3,HMGVGVKSTEVDYQRTSSGSDIPTDDAAWTKTIPAVKVNTFLWTRTKINYTDGTSAIFYSVGY,-0.281
4,HMGVGVPVTLLLEKLGEDTLSAQQIMERLGLKSRASFRKVYLVPALEQKLIEMEFPDKPNSSKQRYRR,-0.853
5,HMGVISRVITFWQNGFTVDDGPLRAFDDPANMAFMESIGRGEAPAELAPKTRTQRVNINLVQRHEPYSAPK,-0.0726
6,HMGVITVRPPIVVRDFAIALNLKPFQVIGNLMELNKVVSVSSVIEEADARKVAERHGYTLEIRH,-0.516
7,HMGVMNEYEELRDRYLTGQIWKIGDLVEAKGIEGKIIQRGTNYITFNDSQGKVHKAWLHEIKV,0.184
8,HMGVNNDIIKHRKLEFMIEMLPDTFTRKEANEIGEGLGISLATLTRYLSSDAFERTGHGRYRKKD,-1.08
9,HMGVPTEQEIGKRILAWRKLRGMTLQQLADKAGVGLTTIHNLETGLWYAKMPTYLYIAEALGVSLDALIYG,-1.42
10,HMGVPVTAPMPGKVLKVTVSVGAAVKNGDLVLVLEAMKMENEIFATANGVVKEIRSREGDTVNSGDVMMVI,-0.533
11,HMGVRPAALGFQKVRIEPQVGTFREASGDVITPRGLIHAEWKRDEENALHLHYTLPDGVAYA,-0.0327
12,HMGVSDDMARGVVRARQFLSDFAAVPLDRMTPAEAVARARQLKSELETDAKHSPWLLDVLSNA,-0.0848
13,HMGVSEIGSPAWMESKLVTLASYEGSLDGLRTLWGGVAQHRARIPVESWDRLFAAKEEGKARLVKLGRT,-1.19
14,HMGVSLREVPVAEHGDWIGRPIKELGIPAEVLIVLVRRADGTTVVPKGGTVLQQGDMLVVNEWEE,-0.426
15,HMGVTDSSYNVLRRQILEMLSVQQRTPADLARLIEADKEEIAAVIRFLLDKGEIQMEDGMLQTK,0.0683
16,HMGVVEEVAADFEGRAVVGKVDVDEQTELARRFGIMSIPTLVVMKGGKVVEQAVGARGKADIAAMLERH,0.0848
17,HMGYINLNVKVSPEWRDFWRSAYASVVAGYHQNKEHWNTIILDGSIPDKDIKRMIAESYDLVSD,-0.797
18,HMGYLNDRQRLIKDFITENQPLKVSDLVKQFPNIGLSTLKKDLQYLRGEQVLTMIGKGKGSVYVLNKK,-0.446
19,HMGYNDQEVKSNLITLLSTSKTGLSGVEISAQLGINRVTMTKFLNVFAAEGIIKQKNIGNLNLWLVEEGTE,-1.58
20,HMGYTTSFVVQLKNAVSISFDEIDQNLRKLPGVEDVVIVEEAAMAYLKVDRQHFREEQLAHFEFVRQ,-0.29
21,HMGYVQLTAREKEVLQGLVDGASYKMIAAKLDIRFGTVHTHVKNIYEKLHVNSASEAVVKAIRQRL,-2.46
22,HMHADIAATVVATMRQLGVLGLPRNYEIFYEALSGTNRELSLAVVSLSNRPTQDDLDRIGRRFFA,-0.785
23,HMHAEEIAREAKEALERGEEFHFAGITVRSEEALEFLEEWLRKFF,-0.659
24,HMHALSVKFSDEAAKTLPYDILSALRDVLALDPRPGYSRDENKIYRFEYADYNISFSVKDKTLTVLSAEK,-0.384
25,HMHAPRIEVVQIDPEKIGALIGPGGKNIRRITEVTGANLDIDEDNSGKIRVYASDSEAMNRALQEIDLVT,0.193
